Molecular target: T1, Human CD137 ECD (human)
T1 construct: also called 4-1BB
Assay: SPR, vs parent H183/L072

T1 sequence (chain, as listed by the source limits assumed): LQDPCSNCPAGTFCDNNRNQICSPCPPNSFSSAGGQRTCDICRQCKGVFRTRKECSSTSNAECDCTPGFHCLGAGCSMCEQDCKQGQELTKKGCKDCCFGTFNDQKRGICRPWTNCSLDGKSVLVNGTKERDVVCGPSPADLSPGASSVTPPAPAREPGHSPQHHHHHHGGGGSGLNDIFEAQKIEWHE

Row | Binder | fold change of affinity [fold]
1 | dBBDu183H P61V / dBBDu072L (antibody, name in Kabat numbering, V domains shown, as m1, one VH change) VH: QVQLVESGGGLVQPGRSLRLSCAASGFTFSNAWMHWVRQAPGKGLEWVAQIKDKGNAYAAYYAVSVKGRFTISRDDSKNSIYLQMNSLKTEDTAVYYCHYVHYASASTVLPAFGVDAWGQGTTVTVSS VL: DIVMTQSPLSLPVTPGEPASISCQASQELVHMNRNTYLHWYQQKPGQAPRLLIYKVSNRFPGVPDRFSGSGSGTDFTLKISRVEAEDVGVYYCAQGTSVPFTFGQGTKLEIK | 0.6
2 | dBBDu183H A98S / dBBDu072L (antibody, name in Kabat numbering, V domains shown, as m1, one VH change) VH: QVQLVESGGGLVQPGRSLRLSCAASGFTFSNAWMHWVRQAPGKGLEWVAQIKDKGNAYAAYYAPSVKGRFTISRDDSKNSIYLQMNSLKTEDTAVYYCHYVHYSSASTVLPAFGVDAWGQGTTVTVSS VL: DIVMTQSPLSLPVTPGEPASISCQASQELVHMNRNTYLHWYQQKPGQAPRLLIYKVSNRFPGVPDRFSGSGSGTDFTLKISRVEAEDVGVYYCAQGTSVPFTFGQGTKLEIK | 0.3
3 | dBBDu183H D101S / dBBDu072L (antibody, name in Kabat numbering, V domains shown, as m1, one VH change) VH: QVQLVESGGGLVQPGRSLRLSCAASGFTFSNAWMHWVRQAPGKGLEWVAQIKDKGNAYAAYYAPSVKGRFTISRDDSKNSIYLQMNSLKTEDTAVYYCHYVHYASASTVLPAFGVSAWGQGTTVTVSS VL: DIVMTQSPLSLPVTPGEPASISCQASQELVHMNRNTYLHWYQQKPGQAPRLLIYKVSNRFPGVPDRFSGSGSGTDFTLKISRVEAEDVGVYYCAQGTSVPFTFGQGTKLEIK | 3.3
4 | dBBDu183H D101N / dBBDu072L (antibody, name in Kabat numbering, V domains shown, as m1, one VH change) VH: QVQLVESGGGLVQPGRSLRLSCAASGFTFSNAWMHWVRQAPGKGLEWVAQIKDKGNAYAAYYAPSVKGRFTISRDDSKNSIYLQMNSLKTEDTAVYYCHYVHYASASTVLPAFGVNAWGQGTTVTVSS VL: DIVMTQSPLSLPVTPGEPASISCQASQELVHMNRNTYLHWYQQKPGQAPRLLIYKVSNRFPGVPDRFSGSGSGTDFTLKISRVEAEDVGVYYCAQGTSVPFTFGQGTKLEIK | 0.7
5 | dBBDu183H A100fS / dBBDu072L (antibody, name in Kabat numbering, V domains shown, as m1, one VH change) VH: QVQLVESGGGLVQPGRSLRLSCAASGFTFSNAWMHWVRQAPGKGLEWVAQIKDKGNAYAAYYAPSVKGRFTISRDDSKNSIYLQMNSLKTEDTAVYYCHYVHYASASTVLPSFGVDAWGQGTTVTVSS VL: DIVMTQSPLSLPVTPGEPASISCQASQELVHMNRNTYLHWYQQKPGQAPRLLIYKVSNRFPGVPDRFSGSGSGTDFTLKISRVEAEDVGVYYCAQGTSVPFTFGQGTKLEIK | 0.7
6 | dBBDu183H A100fG / dBBDu072L (antibody, name in Kabat numbering, V domains shown, as m1, one VH change) VH: QVQLVESGGGLVQPGRSLRLSCAASGFTFSNAWMHWVRQAPGKGLEWVAQIKDKGNAYAAYYAPSVKGRFTISRDDSKNSIYLQMNSLKTEDTAVYYCHYVHYASASTVLPGFGVDAWGQGTTVTVSS VL: DIVMTQSPLSLPVTPGEPASISCQASQELVHMNRNTYLHWYQQKPGQAPRLLIYKVSNRFPGVPDRFSGSGSGTDFTLKISRVEAEDVGVYYCAQGTSVPFTFGQGTKLEIK | 0.6
7 | dBBDu183H A98E / dBBDu072L (antibody, name in Kabat numbering, V domains shown, as m1, one VH change) VH: QVQLVESGGGLVQPGRSLRLSCAASGFTFSNAWMHWVRQAPGKGLEWVAQIKDKGNAYAAYYAPSVKGRFTISRDDSKNSIYLQMNSLKTEDTAVYYCHYVHYESASTVLPAFGVDAWGQGTTVTVSS VL: DIVMTQSPLSLPVTPGEPASISCQASQELVHMNRNTYLHWYQQKPGQAPRLLIYKVSNRFPGVPDRFSGSGSGTDFTLKISRVEAEDVGVYYCAQGTSVPFTFGQGTKLEIK | 0.3
8 | dBBDu183H D101T / dBBDu072L (antibody, name in Kabat numbering, V domains shown, as m1, one VH change) VH: QVQLVESGGGLVQPGRSLRLSCAASGFTFSNAWMHWVRQAPGKGLEWVAQIKDKGNAYAAYYAPSVKGRFTISRDDSKNSIYLQMNSLKTEDTAVYYCHYVHYASASTVLPAFGVTAWGQGTTVTVSS VL: DIVMTQSPLSLPVTPGEPASISCQASQELVHMNRNTYLHWYQQKPGQAPRLLIYKVSNRFPGVPDRFSGSGSGTDFTLKISRVEAEDVGVYYCAQGTSVPFTFGQGTKLEIK | 3.3
9 | dBBDu183H D101Q / dBBDu072L (antibody, name in Kabat numbering, V domains shown, as m1, one VH change) VH: QVQLVESGGGLVQPGRSLRLSCAASGFTFSNAWMHWVRQAPGKGLEWVAQIKDKGNAYAAYYAPSVKGRFTISRDDSKNSIYLQMNSLKTEDTAVYYCHYVHYASASTVLPAFGVQAWGQGTTVTVSS VL: DIVMTQSPLSLPVTPGEPASISCQASQELVHMNRNTYLHWYQQKPGQAPRLLIYKVSNRFPGVPDRFSGSGSGTDFTLKISRVEAEDVGVYYCAQGTSVPFTFGQGTKLEIK | 1.7
10 | dBBDu183H F100gE / dBBDu072L (antibody, name in Kabat numbering, V domains shown, as m1, one VH change) VH: QVQLVESGGGLVQPGRSLRLSCAASGFTFSNAWMHWVRQAPGKGLEWVAQIKDKGNAYAAYYAPSVKGRFTISRDDSKNSIYLQMNSLKTEDTAVYYCHYVHYASASTVLPAEGVDAWGQGTTVTVSS VL: DIVMTQSPLSLPVTPGEPASISCQASQELVHMNRNTYLHWYQQKPGQAPRLLIYKVSNRFPGVPDRFSGSGSGTDFTLKISRVEAEDVGVYYCAQGTSVPFTFGQGTKLEIK | 1.9
11 | dBBDu183H D101E / dBBDu072L (antibody, name in Kabat numbering, V domains shown, as m1, one VH change) VH: QVQLVESGGGLVQPGRSLRLSCAASGFTFSNAWMHWVRQAPGKGLEWVAQIKDKGNAYAAYYAPSVKGRFTISRDDSKNSIYLQMNSLKTEDTAVYYCHYVHYASASTVLPAFGVEAWGQGTTVTVSS VL: DIVMTQSPLSLPVTPGEPASISCQASQELVHMNRNTYLHWYQQKPGQAPRLLIYKVSNRFPGVPDRFSGSGSGTDFTLKISRVEAEDVGVYYCAQGTSVPFTFGQGTKLEIK | 2.2
12 | dBBDu183H A100G / dBBDu072L (antibody, name in Kabat numbering, V domains shown, as m1, one VH change) VH: QVQLVESGGGLVQPGRSLRLSCAASGFTFSNAWMHWVRQAPGKGLEWVAQIKDKGNAYAAYYAPSVKGRFTISRDDSKNSIYLQMNSLKTEDTAVYYCHYVHYASGSTVLPAFGVDAWGQGTTVTVSS VL: DIVMTQSPLSLPVTPGEPASISCQASQELVHMNRNTYLHWYQQKPGQAPRLLIYKVSNRFPGVPDRFSGSGSGTDFTLKISRVEAEDVGVYYCAQGTSVPFTFGQGTKLEIK | 0.7
13 | dBBDu183H A100N / dBBDu072L (antibody, name in Kabat numbering, V domains shown, as m1, one VH change) VH: QVQLVESGGGLVQPGRSLRLSCAASGFTFSNAWMHWVRQAPGKGLEWVAQIKDKGNAYAAYYAPSVKGRFTISRDDSKNSIYLQMNSLKTEDTAVYYCHYVHYASNSTVLPAFGVDAWGQGTTVTVSS VL: DIVMTQSPLSLPVTPGEPASISCQASQELVHMNRNTYLHWYQQKPGQAPRLLIYKVSNRFPGVPDRFSGSGSGTDFTLKISRVEAEDVGVYYCAQGTSVPFTFGQGTKLEIK | 0.4
14 | dBBDu183H A100fH / dBBDu072L (antibody, name in Kabat numbering, V domains shown, as m1, one VH change) VH: QVQLVESGGGLVQPGRSLRLSCAASGFTFSNAWMHWVRQAPGKGLEWVAQIKDKGNAYAAYYAPSVKGRFTISRDDSKNSIYLQMNSLKTEDTAVYYCHYVHYASASTVLPHFGVDAWGQGTTVTVSS VL: DIVMTQSPLSLPVTPGEPASISCQASQELVHMNRNTYLHWYQQKPGQAPRLLIYKVSNRFPGVPDRFSGSGSGTDFTLKISRVEAEDVGVYYCAQGTSVPFTFGQGTKLEIK | 1
15 | dBBDu183H A100R / dBBDu072L (antibody, name in Kabat numbering, V domains shown, as m1, one VH change) VH: QVQLVESGGGLVQPGRSLRLSCAASGFTFSNAWMHWVRQAPGKGLEWVAQIKDKGNAYAAYYAPSVKGRFTISRDDSKNSIYLQMNSLKTEDTAVYYCHYVHYASRSTVLPAFGVDAWGQGTTVTVSS VL: DIVMTQSPLSLPVTPGEPASISCQASQELVHMNRNTYLHWYQQKPGQAPRLLIYKVSNRFPGVPDRFSGSGSGTDFTLKISRVEAEDVGVYYCAQGTSVPFTFGQGTKLEIK | 0.5
16 | dBBDu183H A100K / dBBDu072L (antibody, name in Kabat numbering, V domains shown, as m1, one VH change) VH: QVQLVESGGGLVQPGRSLRLSCAASGFTFSNAWMHWVRQAPGKGLEWVAQIKDKGNAYAAYYAPSVKGRFTISRDDSKNSIYLQMNSLKTEDTAVYYCHYVHYASKSTVLPAFGVDAWGQGTTVTVSS VL: DIVMTQSPLSLPVTPGEPASISCQASQELVHMNRNTYLHWYQQKPGQAPRLLIYKVSNRFPGVPDRFSGSGSGTDFTLKISRVEAEDVGVYYCAQGTSVPFTFGQGTKLEIK | 1.1
17 | dBBDu183H A102G / dBBDu072L (antibody, name in Kabat numbering, V domains shown, as m1, one VH change) VH: QVQLVESGGGLVQPGRSLRLSCAASGFTFSNAWMHWVRQAPGKGLEWVAQIKDKGNAYAAYYAPSVKGRFTISRDDSKNSIYLQMNSLKTEDTAVYYCHYVHYASASTVLPAFGVDGWGQGTTVTVSS VL: DIVMTQSPLSLPVTPGEPASISCQASQELVHMNRNTYLHWYQQKPGQAPRLLIYKVSNRFPGVPDRFSGSGSGTDFTLKISRVEAEDVGVYYCAQGTSVPFTFGQGTKLEIK | 1.6
18 | dBBDu183H F100gH / dBBDu072L (antibody, name in Kabat numbering, V domains shown, as m1, one VH change) VH: QVQLVESGGGLVQPGRSLRLSCAASGFTFSNAWMHWVRQAPGKGLEWVAQIKDKGNAYAAYYAPSVKGRFTISRDDSKNSIYLQMNSLKTEDTAVYYCHYVHYASASTVLPAHGVDAWGQGTTVTVSS VL: DIVMTQSPLSLPVTPGEPASISCQASQELVHMNRNTYLHWYQQKPGQAPRLLIYKVSNRFPGVPDRFSGSGSGTDFTLKISRVEAEDVGVYYCAQGTSVPFTFGQGTKLEIK | 0.7
19 | dBBDu183H A100Q / dBBDu072L (antibody, name in Kabat numbering, V domains shown, as m1, one VH change) VH: QVQLVESGGGLVQPGRSLRLSCAASGFTFSNAWMHWVRQAPGKGLEWVAQIKDKGNAYAAYYAPSVKGRFTISRDDSKNSIYLQMNSLKTEDTAVYYCHYVHYASQSTVLPAFGVDAWGQGTTVTVSS VL: DIVMTQSPLSLPVTPGEPASISCQASQELVHMNRNTYLHWYQQKPGQAPRLLIYKVSNRFPGVPDRFSGSGSGTDFTLKISRVEAEDVGVYYCAQGTSVPFTFGQGTKLEIK | 0.6
20 | dBBDu183H A100E / dBBDu072L (antibody, name in Kabat numbering, V domains shown, as m1, one VH change) VH: QVQLVESGGGLVQPGRSLRLSCAASGFTFSNAWMHWVRQAPGKGLEWVAQIKDKGNAYAAYYAPSVKGRFTISRDDSKNSIYLQMNSLKTEDTAVYYCHYVHYASESTVLPAFGVDAWGQGTTVTVSS VL: DIVMTQSPLSLPVTPGEPASISCQASQELVHMNRNTYLHWYQQKPGQAPRLLIYKVSNRFPGVPDRFSGSGSGTDFTLKISRVEAEDVGVYYCAQGTSVPFTFGQGTKLEIK | 0.5
21 | dBBDu183H A102S / dBBDu072L (antibody, name in Kabat numbering, V domains shown, as m1, one VH change) VH: QVQLVESGGGLVQPGRSLRLSCAASGFTFSNAWMHWVRQAPGKGLEWVAQIKDKGNAYAAYYAPSVKGRFTISRDDSKNSIYLQMNSLKTEDTAVYYCHYVHYASASTVLPAFGVDSWGQGTTVTVSS VL: DIVMTQSPLSLPVTPGEPASISCQASQELVHMNRNTYLHWYQQKPGQAPRLLIYKVSNRFPGVPDRFSGSGSGTDFTLKISRVEAEDVGVYYCAQGTSVPFTFGQGTKLEIK | 0.9

— patent US20210388087A1 (Chugai, published 2021)
